Data: article PMC3332083 (Biochemistry, 2012)

Columns and labels:
SEC = target: the molecule itself; assay: SEC
dynamic light scattering = target: the molecule itself; assay: dynamic light scattering

Row | Protein | stoichiometry N (SEC) [subunits] | stoichiometry N (dynamic light scattering) [subunits]
1 | Serum amyloid A isoform SAA2.2 from the CE/J mouse strain, full-length (103 amino acids) (natural protein, mouse (CE/J strain), UniProt P05367 20-122, looked up) GFFSFVHEAFLGAGDMWRAYTDMKEAGWKDGDKYFHARGNYDAAQRGPGGVWAAEKISDGREAFQEFFGRGHEDTMADQEANRHGRSGKDPNYYRPPGLPDKY | 8 | –
2 | Carboxy-terminal truncated SAA2.2 (SAA2.2ΔC), truncated after the ninetieth amino acid residue (domain or fragment, mouse (CE/J strain), UniProt P05367 20-109, looked up) GFFSFVHEAFLGAGDMWRAYTDMKEAGWKDGDKYFHARGNYDAAQRGPGGVWAAEKISDGREAFQEFFGRGHEDTMADQEANRHGRSGKD | – | 70 to 170
